Target: T1, recombinant SSL7 (GL1 S. aureus Greenlane), wild type (Staphylococcus aureus)
T1 construct: also called rSSL7; SET1 GL1
Test: co-crystal structure

B1: recombinant IgA Fc (Cys242 to Pro455 of human IgA1) (other)
chain: CHPRLSLHRPALEDLLLGSEANLTCTLTGLRDASGVTFTWTPSSGKSAVQGPPERDLCGCYSVSSVLPGCAEPWNHGKTFTCTAAYPESKTPLTATLSKSGNTFRPEVHLLPPPSEELALNELVTLTCLARGFSPKDVLVRWLQGSQELPREKYLTWASRQEPSQGTTTFAVTSILRVAAEDWKKGDTFSCMVGHEALPLAFTQKTIDRLAGKP
notes: range 242-455
binding result: binds

Source: patent US20110027907A1 (AUCKLAND UNISERVICE, published 2011)
